Data from the NTF2 design screens of Basanta et al. (2020).

Assay: protease stability score; higher = more stable; yeast display proteolysis, trypsin and chymotrypsin;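 note: relative to predicted unfolded state with 0 unfolded-like and 1 meaning tenfold more protease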

Sequence | protease stability score
LEEEEIARELLKRILDMLFTGDEEVLSELLDPNVRVDFNGVEIHGREHVREWMHHLRFRHLHLRDFRVQGDKLHLDTETRGEIDGQEVRIETRLIARKVDGRWILKSREFV | 1.53
EEHHEITKDLIELLERTMKTGDEDILRKMADPHTKVEQGDKRIIGRDEFQEEWVEWMRRVDHAEVRLTDFREFPNHLELHGTLDVNINGRDIRIEIQIIVSKFDGRWSLHSISFR | 0.107
DEDHKLAEHFIRLLSEKIETGDEDSYKEMVDPNVRIEIGDKEYHGRDEATRVMKEIRERVKNMRIEIHEIHIQGDKVHVRRIDKVGDKEIEKHLIVLKFDGRWVIERERVH | 1.19
DEEHKLQEDFLKALIRSILTGDWEFWKRLLDPHVRMNINGVYVHGRDEAANILIKDLERRGMEIKTITIEDRRHYDGVLEVKLRIQTTIDGQEHETSLEFHVKKYDGRWIIEHITVR | 2.19
SEDEEESEFAVRELSKIIKTGDPDRFHHLADPNMRFIYGDKREHGMESWVSHLHRLGIENVEVHIHDWSVFNGQVVIDGRINVNGREVNAEFVMRKIDGRWHITEVRER | 0.611
HEHEQQVREIAKKLLHALLTGDEDEIYRLIDPNVRLIILVGDKEIHVHGRELVSEVMHKLFRELGVDHWHSRSELLIGNKFHVDTEQHFNGQTFETQVHILVIDGKVHLLTLQIH | 1.88
DDIKEETDHLVDLLMEDIITGNERRLSHLADPNVRFTVGDWHSHGRKEMVEALRFTLDRADHVEYQPHRIENQGDKATAVIRVKLEYNGRTEEFRLIFTMEKIDGKWIVHKIFYR | 0.976
SEEEEMNEELIKIVLHSWKTGDEKHLEENFDPNVKLIVGDKRFIGREHLVKLIDHLIKRYPGLTIHLHDVKIQGNYVHLDTRAHFDGQTYNTRSHARKVDGRWYLTHSHIE | 0.125
TEHEEMIREALEFLIRLLETGDFERLHHLADPNVRLEQGDKEFIGREEWLRLFTEEIRQYKGITIHIHEVEVVDGRVYINGTVHQGDKIRRVIWVIIKIDGKWRIHSVHIR | 2.19
DESTRDVKEMVEWFLRTLHTGDEHLLEHLLDPDVRVLIDGREHHGRETMREIWKEHIDKIKGAVIEIKRIEVRIQGNKAHLHVDTVLHYNGRNLDTHIEIIITKINGQWRVREVEIRVR | 2.21
DEEDRKSERVLKEFLHDVLTGDEHTLNRLADPHVRLEVGDKEDHGREKLAKYMVRADHIEHVELRHHHFQGDKIHLHVKIRENVNGREVIFESIEIWLKIDGRWILDSLIVK | 0.091
SEVEEEMTRIADILLRVTKTGDWEEMRDLIDPDARMIIDIDGREHINVGREDLARSLKRLRDHLGVKVWDYHHISVIGDKIHIETQQRFNGQDVTTRNEWTVINGKLKEMRLIIH | 2.02
SEIEKESEKIWKIWFHNLETGNWREIARLFDPHARWRELVDGREVNIVGREEVVRLLSENSEHLRLDDFRETSVRVIGDFVRSDVEMVGTVDGQHERRRVEVIIVTINGRLHSITITHL | 1.15
SEEDELTRELVELWLHVFHTGDEEIMYKLADPNARVDVLIDGKRLDLVGREEIRRFLHEWHREAGFKHFDLHDIHFQGEKVHIDGREVYGDKFFRVIIHIHIVNGRIKSTKIEIR | 1.67
DSSENFMRHMMEEVWNALVTGDEKLFQRLADPDVRLHFNGVHTHGRENVLTFLRSLDEHLGVKHRSIHDFTIVGDYSHIDTTMEVGDKHWRIHLFLVIIDGRVHHIEIRIE | 2.23
DEELEMLRRFWEDLLHSAKTGDEELWERLADPNVRVIINGKLFHGRELASHALRELFERVDVIKDVKITDEKRQGDKIHLDIRVHNHYNGKFEDNDLHIVLVKVDGKWFLKSVEFR | 2.12
SEEEELSEIASRITIEILKTGDEHMLHELADPNARLDVNGVESHGRESVVKSFRMLGVKHWTLRDVKVVDGRVWIHGELHVDGKTRRLILIVEKINGRWVMEEIRIG | 0.817
SEDEEEHKEMLRILIHDNRTGDEDSFRDMFDPNVRFEQGEWSAHGRDWAEHVMRRADHVKLDLQTMDTQGDKVILHGRLILLQGEKRIDEKVIFIIRKIDGKWILESVHFH | 1.21
DEEEEIMRKIIEDLRHNTETGDEELMQDLMDPHARIDIDGQKLHGREYVRFLHDEFKGATWIWREVRLQGDKLDVHVEVRFDGRTLHVDIHYVIVNGRTKEIRVHWD | 1.28
SEEEDHIREFLLLIIHAFRTGDEEFFERNVDPNVRLHSDVDGRELQLHGRDEFSRYFHHFRHRAGIDHIEDKRVTSQGDKIIVHGWSIVGDKIHHLELHFIVIDGQVHTVEIRPK | 1.28
SEEEEEMRHHLEIFIESLRTGDEDEIANNADPNWINVVGDKENIGREHILTWYERFYEEIRIHDMKIRHVDVQGEKMRVEGELNKDVNGREIRTEHRWEFDIVNGRLRSLQVRVK | 0.919
DEKERLAHEFHERFLEALMTGDEHHIEEMFDPNARTRQGDKTFHGRERSLHLISEWWRQIDVVRDIHIHEIKFQGDFLSFHLMIDGEINGRRDELVVHVESRKIDGKWFLHSVTYT | 0.497
SDYEKEVLDYAHTFLHAFLTGNEFILLKLLDPHVRIEIHFDGVDFLRHGRETFSKRAVDHIREWRVEIRLHDLHVVDGVVHLNTRLHVDYGDKHIHITQHITLFVINGRMKTVHIRHE | 1.26
HEDEKIARELTELLLHHFHTGNEESLSKLMDPNVRVIAENHELHGMEKKIEKNRKYLKDLGVDHFSFELRHLDLQGDKARVEGIEHWTINGQHHERHMVLHIVVVNGRLQESSIEIR | 0.929
DREEEHTRTLAKELFEIFLTGDFDRFSELADPNTRLRIIINGVEFRDHGMEFWQWWVDEIRIHSYRMRDMRVFNGQAILLSTSDVEFNGRRHETTVEFVLVIVNGRIKSVTIIVR | 1.69

Sequence | protease stability score
DEDENIARHAMELYFKLFETGDFNTLSHLLDPNVRSNINGQTLHGRELMLKQFLDLWEHMGVDHIELKDSREHLVNGRVHRHFHGHLHVNGQTYEVHVRFIMVKVNGRWRHTSESISIR | 1.1
SEEEEYALKVLEDILKAFLTGDWKITEHLLDPDARLEINGRNFVGRELIRKYLEEYLRRIDVVRIKIRHVEVQGDKNHLEGELIEIQGDKHKSMDMKIHLVIINGRVRREHVRVE | 2.15
SEIEHNLRLAEELLEKVTQTGNEELLHDLIDPNVRFYINGRDFVGREKNIKVFRSWGIDRVHFESEHIDIQGNKINFHGQINVNGKSMDTQIIAVKVNGRWLIKESWVD | 0.565
SESEELAEHWFELLIRSILTGDEDTLRRLMDPDVKIQVGDKEWHGREEYIRMVLEFSHLYKNVKLHFRIRSVVDIDGRLTVDTEIINSFDGREYRIDTRLHVDKYDGVWVAKHLIYS | 1.39
DHEEKEARRLLELIWKLIQTGDEHFLRELMDPHARISIDGVRLHGMEDIREFLHRYFKHHGYRWHRQRETEKHVVNGVQILFGEHDGEVDGKRDNTRSRLIFLVIDGKLQELEVNNV | 0.855
EEEKESHQWILEVYMHTVRTGDPRMIKELLDPNVKLEAENREVHGREHVLKILWTKLHEMRIEHVTVEDVEVQGNKVRVHNEVHYTFDGQRDILKTEVIATKFDGRWHFKSLREK | 0.222
SEDEEMLRRIIEELNRAHKTGNWRRIAELMDPDVRLIIGDKENHGRSVLIEWLKRIDHIEVESVDIHHIDSQGDKIILHGQVHLINVYNGVEVQENRDMTVILIKVDGRWFFHSIRVR | 2.56
DEDTEIAFELVDLVMKSLKTGDEHLMLRLMDPHTRLEVGDKEHHGWEEILKELSEIRIHLEDVDHRDVRIYGEKIHVDVEVDITIEYNGRRTRVKTRLEVDILKVNGQWRVKQVSLK | 2.07
SEDEELLRESVRIFREAMRTGDEEFSERMIDPNVRIHIGDKEYIGREWASEWHKRLGIKHSRFRHIEIQGDFMIADVENKVGDKHIQVEYWRHKINGRWIIESIKVH | 1.55
DEDEEYAREMYRLSVEALSTGDEDTLRHLFDPDVKVSWNGKENIGMEQSLKHWHHLRIEFRRIKIEQVHIQGNKVRLNLRVDGYIRVDGKEDRVHMKSHSVYVKINGKWTMHSIEFE | 1.79
DEFHHSVELAIRIIFEILRTGDEHHMDTMADPDVRIIIGDKHNVGRELVKDVMRRLVTEWRIRHWEIKNSHLIGDKLLVDSHVEVEVGDFNLRTDVHLVFTKINGRWTLHSHHID | 1.09
KELERDSREATHTFLRDIKTGDFESLHRLADPTTRMHIGDKEFHGWELLIHVIAEFLRKVPNMRTTLRDERVQGEKVEVRVDIHYNGQDRHIELEIHKVNGKWWIKVMEFE | 0.88
SEDEEDMTHAIEEIEHFWMTGDWKKMHDLADPHVKTIINGREQHGRRHMIEAIKDSRRRLGVNYIHSVSNKHFDLQGNKVHSDIRIDVDVNGKHIDLELEVDIVKVDGKWQLSHLKIV | 0.931
DHEEKIWEEVLKELVHQFLTGDWKTRTQMADPEVRVESRVGDKFVRMHGREYLRMLMEFLHEQIKNATVTLHSFRVVDGRNEIKLRAEIGDKTHEIDMHYFVVDGRIKSLHVRTWEL | 1.05
SEEHEEERHHVEDLLRALWTGNEEHLKKLADPHMRTILIVNGKQLDLHGWRDMWRALREIRERLGIDHEHIHRSRIYNGRLEIDSRVEVDGVHHIVKIRVDVIDGKNHEFKIEFR | 1.63
SEHEEIMHKALLFLIYVLLTGDEEILHELLDPNARLDVNGREKHGREDWVQLKRELIHKIKNVRIELHDMKVIGDFLISDQRHDYDGREYKMDVFAFKVDGQWKVREEKLD | 1.44
SEIWHLAENLSHLWMHKILTGDEDSIRNLLDPNARVHVNGKEVHGREETVKFMRHRVDEMGVDHMHFELKRFEVQGNYAIHHGTLIIHVDGREIRIESTIHLLKVNGRWLITDSSER | 0.845
DETTKLVEEVTRLLERAWETGDEETIYQLLDPNVKWNINGVDFHGMEHLAREIIHELRRHGFRVRFRLHHIDIQGDKARVESIEHIHIGNKHIHRRTYLFLSKVNGVWSIQEQRVE | 1.44
EEESKVASDIIELHMRFLLTGNWEMFLRLADPHVRIETEDHRDHGRDWYEKLFRHIRSHVEDMRIKHVELQGDKLHAHGSVRLLIVDGDKYIEVEVDFRFIFDKVNGKWILSSIHLK | 2.29
DENEELLTDMIRLLKNVLETGDEEHFHRLADPHVRFKIGDKIFHGREEATRIFSEVMERFKNVRLRLEHIEIIGDKITIHTRIDVGDKSYEMHIHARKVNGKWIMETLFIR | 1.17
SEEEEEFRRAVEFIERTIQTGDERILRELADPHVRLEIGDKHDHGRERVVEIWVSIFEKFKNARWEIRDVKVIDGKIYIDGSLIIDGKEHQTLIVSEKVNGRWHLKSIHIH | 2.17
REEEREAKEWLERLIRDIITGDEDKMTNLIDPNVRILINGKHIHGWELYFKIWIDHVERFPNMRVDYHVKSITFFNGRIIMYYEERIHINGKEIRVDVHIQALKVNGRWILESVHNE | 1.54
TEEEKEVEDLLRVVIHALQTGDEKKISELVDPNMRVKIGDKINHGWENAFEFHVRFIKELGVDHINIHPRHVRLIGDKVEVHLNLIIHVNGRDHETEIRLTAIKVNGRWHIESFEEQ | 1.91
DEEEEKDRILVEIWKRLVLTGDEEELLNLADPEARQTVHFNGKEVRNVGMERVIEHNREYLRLMGVDHITVDRSRVVNGRVENHHRVFVGEKEIRFEIEVTIINGRLRSVTIRVR | 0.379
DEEEEDSEDAVRFIMLALDTGDEKLLTSLADPNMRLDVNGREFHGREDFIHFLEEVRKKLGVDRIRTHVRETHVINGRVHVRGELRWNGRTHESHVHIIKIDGKWVIKSVHIR | 2.11
